Here are results for one molecule from paper PMC8357826, “The extracellular chaperone Clusterin enhances Tau aggregate seeding in a cellular model” (Nature Communications, 2021).

This experiment addresses cysteine-free TauRD (Tau repeat domain, residues 244-371, C291A/P301L/C322A/V337M) (UniProt P10636-8 244-371, C291A | P301L | C322A | V337M). The experiment can be described thus: cell-based or functional assay.

Chain of cysteine-free TauRD (Tau repeat domain, residues 244-371, C291A/P301L/C322A/V337M) (P10636 561-688 C608A/P618L/C639A/V654M): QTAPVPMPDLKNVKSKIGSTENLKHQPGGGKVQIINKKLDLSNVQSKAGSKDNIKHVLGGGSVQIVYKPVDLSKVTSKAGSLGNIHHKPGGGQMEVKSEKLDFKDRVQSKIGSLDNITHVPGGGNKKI

B1: Clusterin (Clu; apolipoprotein J), recombinant with Strep tag (CluStrep) (natural protein, human)
chain 1: DQTVSDNELQEMSNQGSKYVNKEIQNAVNGVKQIKTLIEKTNEERKTLLSNLEEAKKKKEDALNETRESETKLKELPGVCNETMMALWEECKPCLKQTCMKFYARVCRSGSGLVGRQLEEFLNQSSPFYFWMNGDRIDSLLENDRQQTHMLDVMQDHFSRASSIIDELFQDRFFTREPQDTYHYLPFSLPHRRPHFFFPKSRIVR
chain 2: SLMPFSPYEPLNFHAMFQPFLEMIHEAQQAMDIHFHSPAFQHPPTEFIREGDDDRTVCREIRHNSTGCLRMKDQCDKCREILSVDCSTNNPSQAKLRRELDESLQVAERLTRKYNELLKSYQWKMLNTSSLLEQLNEQFNWVSRLANLTQGEDQYYLRVTTVASHTSDSDVPSGVTEVVVKLFDSDPITVTVPVEVSRKNPKFMETVAEKALQEYRKKHREE
modifications: N-glycosylated | N-glycosylated
For B1, the “seeding capacity in TauRD-YT cells of the soluble fraction of a TauRD aggregation reaction made without Clu, after adding Clu” value was around 5 fold and the “specific seeding activity (FRET-positive TauRD-YT cells per ng TauRD) of the Clu-containing supernatant against the supernatant without Clu” value was around 40 fold.
